In IntAct's records for PubMed 32453716:

B1: TOG array regulator of axonemal microtubules protein 1 (Homo sapiens), Q9Y4F4 (parent)
chain: MAAAPSALLLLPPFPVLSTYRLQSRSRPSAPETDDSRVGGIMRGEKNYYFRGAAGDHGSCPTTTSPLASALLMPSEAVSSSWSESGGGLSGGDEEDTRLLQLLRTARDPSEAFQALQAALPRRGGRLGFPRRKEALYRALGRVLVEGGSDEKRLCLQLLSDVLRGQGEAGQLEEAFSLALLPQLVVSLREENPALRKDALQILHICLKRSPGEVLRTLIQQGLESTDARLRASTALLLPILLTTEDLLLGLDLTEVIISLARKLGDQETEEESETAFSALQQIGERLGQDRFQSYISRLPSALRRHYNRRLESQFGSQVPYYLELEASGFPEDPLPCAVTLSNSNLKFGIIPQELHSRLLDQEDYKNRTQAVEELKQVLGKFNPSSTPHSSLVGFISLLYNLLDDSNFKVVHGTLEVLHLLVIRLGEQVQQFLGPVIAASVKVLADNKLVIKQEYMKIFLKLMKEVGPQQVLCLLLEHLKHKHSRVREEVVNICICSLLTYPSEDFDLPKLSFDLAPALVDSKRRVRQAALEAFAVLASSMGSGKTSILFKAVDTVELQDNGDGVMNAVQARLARKTLPRLTEQGFVEYAVLMPSSAGGRSNHLAHGADTDWLLAGNRTQSAHCHCGDHVRDSMHIYGSYSPTICTRRVLSAGKGKNKLPWENEQPGIMGENQTSTSKDIEQFSTYDFIPSAKLKLSQGMPVNDDLCFSRKRVSRNLFQNSRDFNPDCLPLCAAGTTGTHQTNLSGKCAQLGFSQICGKTGSVGSDLQFLGTTSSHQEKVYASLNFGSKTQQTFGSQTECTSSNGQNPSPGAYILPSYPVSSPRTSPKHTSPLIISPKKSQDNSVNFSNSWPLKSFEGLSKPSPQKKLVSQKSSDPTGRNHGENSQEKPPVQLTPALVRSPSSRRGLNGTKPVPPIPRGISLLPDKADLSTVGHKKKEPDDIWKCEKDSLPIDLSELNFKDKDLDQEEMHSSLRSLRNSAAKKRAKLSGSTSDLESPDSAMKLDLTMDSPSLSSSPNINSYSESGVYSQESLTSSLSTTPQGKRIMSDIFPTFGSKPCPTRLSSAKKKISHIAEQSPSAGSSSNPQQISSFDFTTTKALSEDSVVVVGKGVFGSLSSAPATCSQSVISSVENGDTFSIKQSIEPPSGIYGRSVQQNISSYLDVENEKDAKVSISKSTYNKMRQKRKEEKELFHNKDCEKKEKNSWERMRHTGTEKMASESETPTGAISQYKERMPSVTHSPEIMDLSELRPFSKPEIALTEALRLLADEDWEKKIEGLNFIRCLAAFHSEILNTKLHETNFAVVQEVKNLRSGVSRAAVVCLSDLFTYLKKSMDQELDTTVKVLLHKAGESNTFIREDVDKALRAMVNNVTPARAVVSLINGGQRYYGRKMLFFMMCHPNFEKMLEKYVPSKDLPYIKDSVRNLQQKGLGEIPLDTPSAKGRRSHTGSVGNTRSSSVSRDAFNSAERAVTEVREVTRKSVPRNSLESAEYLKLITGLLNAKDFRDRINGIKQLLSDTENNQDLVVGNIVKIFDAFKSRLHDSNSKVNLVALETMHKMIPLLRDHLSPIINMLIPAIVDNNLNSKNPGIYAAATNVVQALSQHVDNYLLLQPFCTKAQFLNGKAKQDMTEKLADIVTELYQRKPHATEQKVLVVLWHLLGNMTNSGSLPGAGGNIRTATAKLSKALFAQMGQNLLNQAASQPPHIKKSLEELLDMTILNEL
partner: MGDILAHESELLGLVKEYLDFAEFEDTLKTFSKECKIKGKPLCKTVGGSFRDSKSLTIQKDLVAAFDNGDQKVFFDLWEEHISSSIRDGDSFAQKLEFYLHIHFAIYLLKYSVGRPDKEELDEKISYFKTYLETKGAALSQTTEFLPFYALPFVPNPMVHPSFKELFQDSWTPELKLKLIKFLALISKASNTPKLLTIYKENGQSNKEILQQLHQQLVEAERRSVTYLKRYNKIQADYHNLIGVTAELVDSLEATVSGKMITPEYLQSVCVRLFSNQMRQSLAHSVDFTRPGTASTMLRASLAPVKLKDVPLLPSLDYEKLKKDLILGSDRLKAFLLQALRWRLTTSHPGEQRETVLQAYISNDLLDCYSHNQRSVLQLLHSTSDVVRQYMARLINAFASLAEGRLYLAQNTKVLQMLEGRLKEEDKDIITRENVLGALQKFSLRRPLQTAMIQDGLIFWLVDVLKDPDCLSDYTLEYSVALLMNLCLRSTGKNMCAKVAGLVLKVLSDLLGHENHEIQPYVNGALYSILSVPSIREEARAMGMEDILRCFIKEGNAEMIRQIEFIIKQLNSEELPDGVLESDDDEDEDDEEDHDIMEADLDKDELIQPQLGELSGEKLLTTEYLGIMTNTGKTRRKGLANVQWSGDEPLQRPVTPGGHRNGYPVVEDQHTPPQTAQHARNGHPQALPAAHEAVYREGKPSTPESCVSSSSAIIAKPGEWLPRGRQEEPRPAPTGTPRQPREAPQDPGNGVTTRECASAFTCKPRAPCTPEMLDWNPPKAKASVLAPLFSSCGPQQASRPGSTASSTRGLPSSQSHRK

Variants of: B1
Conditions: with armc9_human ARMC9, Q7Z3E5

Variant	effect of a mutation on the interaction
L375P	disrupting interaction strength
R368W	disrupting interaction strength
R1311C	with no effect
